Targets include 53BP1 Tudor Y1500A (H. sapiens, UniProt Q12888 1484-1603, Y1500A); 53BP1 Tudor D1521A (H. sapiens, UniProt Q12888 1484-1603, D1521A); 53BP1 Tudor W1495A (H. sapiens, UniProt Q12888 1484-1603, W1495A); 53BP1 Tudor Y1523A (H. sapiens, UniProt Q12888 1484-1603, Y1523A); 53BP1 Tudor Y1502A (H. sapiens, UniProt Q12888 1484-1603, Y1502A); 53BP1 Tudor Y1523S (H. sapiens, UniProt Q12888 1484-1603, Y1523S).

Assay in all cases: ITC
Assay [1] addresses T1, 53BP1 tandem Tudor domain (1484-1603) (H. sapiens, UniProt Q12888 1484-1603).
T1 chain: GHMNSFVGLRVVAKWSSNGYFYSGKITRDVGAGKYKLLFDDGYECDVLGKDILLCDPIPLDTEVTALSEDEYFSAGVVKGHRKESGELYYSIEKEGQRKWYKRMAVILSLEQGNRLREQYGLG

Where no end group is shown, it is not given here. Me2 = dimethyl-lysine

Sequence of 53BP1 Tudor D1521A (Q12888 other isoform, or with tags, fused parts or gaps D1521A | D1521A): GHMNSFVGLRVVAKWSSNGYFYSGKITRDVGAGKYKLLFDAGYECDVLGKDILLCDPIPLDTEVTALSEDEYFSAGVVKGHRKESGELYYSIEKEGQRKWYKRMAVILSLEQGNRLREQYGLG
Sequence of 53BP1 Tudor Y1502A (Q12888 other isoform, or with tags, fused parts or gaps Y1502A | Y1502A): as the sequence (Q12888 other isoform, or with tags, fused parts or gaps D1521A | D1521A) above, with Y22A, A41D counted along it
Sequence of 53BP1 Tudor W1495A (Q12888 other isoform, or with tags, fused parts or gaps W1495A | W1495A): as the sequence (Q12888 other isoform, or with tags, fused parts or gaps D1521A | D1521A) above, with W15A, A41D counted along it
Sequence of 53BP1 Tudor Y1500A (Q12888 other isoform, or with tags, fused parts or gaps Y1500A | Y1500A): as the sequence (Q12888 other isoform, or with tags, fused parts or gaps D1521A | D1521A) above, with Y20A, A41D counted along it

For KRHRK(Me2)VLRDN [H4K20me2], the dissociation constant (Kd) is 163 µM with 53BP1 Tudor Y1500A; > 1.5 mM in the assay with 53BP1 Tudor D1521A; > 1.5 mM with 53BP1 Tudor W1495A; 19.7 µM in assay [1]; 7.8 µM with 53BP1 Tudor Y1523A; 151 µM with 53BP1 Tudor Y1502A. In the assay with 53BP1 Tudor Y1523S, this molecule had an equilibrium dissociation constant (Kd) of 65.8 µM.

The record behind these values is publication PMC5974088 (2018).
